# In patent US11339434B2, “Methods for determining gene functions” (The Regents of the University of California, priority 2016, dated 2022):
# B1: TPMT: peptide barcoded human thiopurine methyl transferase produced by cell-free transcription/translation (protein, UniProt P51580 1-245, looked up)
# Thiopurine S-methyltransferase: MDGTRTSLDIEEYSDTEVQKNQVLTLEEWQDKWVNGKTAFHQEQGHQLLKKHLDTFLKGKSGLRVFFPLCGKAVEMKWFADRGHSVVGVEISELGIQEFFTEQNLSYSEEPITEIPGTKVFKSSSGNISLYCCSIFDLPRTNIGKFDMIWDRGALVAINPGDRKCYADTMFSLLGKKFQYLLCVLSYDPTKHPGPPFYVPHAEIERLFGKICNIRCLEKVDAFEERHKSWGIDCLFEKLYLLTEK
# modifications: peptide barcode
# notes: peptide barcoded human thiopurine methyl transferase produced by cell-free transcription/translation
# Assay: methylation of 6-mercaptopurine by peptide barcoded TPMT, LC-ESI-MS
# Format: biochemical
# Details: 1 mM 6-mercaptopurine, 37° C., approximately 24 hours
# Procedure: A polynucleotide encoding a peptide barcoded human thiopurine methyl transferase (TPMT) was incubated for 3 hours at 37° C. in the PURExpress® cell-free transcription/translation system (New England Biolabs, Inc. (Ipswich, Mass.)) according to the manufacturer's protocol in the presence (+protease) or the absence (−protease) of the WELQut-protease. […] After cell-free transcription/translation of peptide barcoded thiopurine methyl transferase (TPMT), 1 mM 6-mercaptopurine and phosphate buffered saline (0.1×) were added with (+cofactor) or without (−cofactor) 3.2 mM of the cofactor S-adenosyl-methionine (SAM). After incubation at 37° C., […] for approximately 24 hours (no shaking), methylation of 6-mercaptopurine and the presence of peptide barcode were determined by liquid chromatography-electrospray ionization-mass spectrometry (LC-ESI-MS).
molecule,measurement,setting,value
B1,methylated 6-mercaptopurine detected by mass spectrometry,"absence of cofactor S-adenosyl-methionine, absence of WELQut-protease",no methylated 6-mercaptopurine nor peptide barcode were detected
same,methylated 6-mercaptopurine detected by mass spectrometry,"absence of cofactor S-adenosyl-methionine, presence of WELQut-protease",no methylated 6-mercaptopurine was detected
same,methylated 6-mercaptopurine detected by mass spectrometry,presence of cofactor S-adenosyl-methionine (3.2 mM) and WELQut-protease,methylated 6-mercaptopurine and the peptide barcode were detected
same,methylated 6-mercaptopurine detected by mass spectrometry,"presence of cofactor S-adenosyl-methionine (3.2 mM), absence of WELQut-protease",methylated 6-mercaptopurine was detected
